From US11278600B2, “Human alpha-galactosidase variants” (Codexis, Inc., priority 2014, dated 2022)
Substitutions are numbered along the chain they refer to.

B1: 3 (protein)
chain: LDNGLARTPTMGWLHWERFMCNLDCQEEPDSCISEKLFMEMADLMVSDGWKDAGYEYLCIDDCWMAPQRDSEGRLQADPQRFPHGIRQLANYVHSKGLKLGIYADVGNKTCAGFPGSFGYYDIDAQTFADWGVDLLKFDGCYCDSLENLADGYKHMSLALNRTGRSIVYSCEWPLYMWPFQKPNYTEIRQYCNHWRNFADIDDSWKSIKSILDWTSFNQERIVDVAGPGGWNDPDMLVIGNFGLSWNQQVTQMALWAIMAAPLFMSNDLRHISPQAKALLQDKDVIAINQDPLGKQGYQLRQGDNFEVWERPLSGLAWAVAMINRQEIGGPRSYTIAVASLGKGVACNPACFITQLLPVKRKLGFYEWTSRLRSHINPTGTVLLQLENTMQMSLKDLL
modifications: Synthetic Polypeptide sequence of Variant No. 3 of mature Human GLA
B2: 8 (protein)
chain: B1 chain with N247D, Q302K, R373K
modifications: Synthetic Polypeptide sequence of Variant No. 8 of mature Human GLA
B3: 11 (protein)
chain: B1 chain with D48E, I208V, N247D, Q299R, R373K, I376V
modifications: Synthetic Polypeptide sequence of Variant No. 11 of mature Human GLA
B4: 10 (protein)
chain: B1 chain with D48E, I208V, N247D
modifications: Synthetic Polypeptide sequence of Variant No. 10 of mature Human GLA
B5: 13 (protein)
chain: B1 chain with D48E, N247D, R373K, I376V
modifications: Synthetic Polypeptide sequence of Variant No. 13 of mature Human GLA
B6: 6 (protein)
chain: B1 chain with I208V, R373K, I376V
modifications: Synthetic Polypeptide sequence of Variant No. 6 of mature Human GLA
B7: 7 (protein)
chain: B1 chain with N247D, Q299R, Q302K, R373K, I376V
modifications: Synthetic Polypeptide sequence of Variant No. 7 of mature Human GLA
B8: 4 (protein)
chain: B1 chain with I208V, N247D, Q299R, Q302K, R373K, I376V
modifications: Synthetic Polypeptide sequence of Variant No. 4 of mature Human GLA
B9: 9 (protein)
chain: B1 chain with Q302K, R373K, I376V
modifications: Synthetic Polypeptide sequence of Variant No. 9 of mature Human GLA
B10: 5 (protein)
chain: B1 chain with I208V, R373K
modifications: Synthetic Polypeptide sequence of Variant No. 5 of mature Human GLA
B11: 12 (protein)
chain: B1 chain with D48E, I208V, Q299R, R373K, I376V
modifications: Synthetic Polypeptide sequence of Variant No. 12 of mature Human GLA
B12: 14 (protein)
chain: B1 chain with D48E, R373K, I376V
modifications: Synthetic Polypeptide sequence of Variant No. 14 of mature Human GLA

Assays:
Type in all cases: biochemical
[1] = HTP-analysis of supernatants pretreated with acid (MUGal hydrolysis); conditions: challenge at pH 4.3; activity of the variant/activity of WT GLA (SEQ ID NO: 5); yeast supernatant
Method: (§1) Yeast (INVSc1) cells transformed with vectors expressing GLA and GLA variants using the lithium acetate method were selected on SD-Ura agar plates. After 72 h incubation at 30° C. colonies were placed into the wells of Axygen® 1.1 ml 96-well deep well plates filled with 200 μl/well SD-Ura broth (2 g/L SD-Ura, 6.8 g/L yeast nitrogen base without amino acids [Sigma Aldrich]), 3.06 g/L sodium dihydrogen phosphate, 0.804 g/L disodium hydrogen phosphate, pH 6.0 supplemented with 6% glucose. The cells were allowed to grow for 20-24 hours in a Kuhner shaker (250 rpm, 30° C., and 85% relative humidity). Overnight culture samples (20 μL) were transferred into Corning Costar® 96-well deep plates filled with 380 µL of SD-ura broth supplemented with 2% glucose. The plates were incubated for 66-84 h in a Kuhner shaker (250 rpm, 30° C., and 85% relative humidity). The cells were then pelleted (4000 rpm×20 min), and the supernatants isolated and stored at 4° C. prior to analysis.
GLA variants were challenged with acidic buffer to simulate the extreme pHs that the variants may encounter in lysosomes. First, 50 μL of yeast culture supernatant and 50 uL of McIlvaine buffer (pH 3.3-4.3) were added to the wells of a 96-well round bottom plate. The plates were sealed with a PlateLoc Thermal Microplate Sealer (Agilent) and incubated at 37° C. for 1-3 h. For the assay, 10-50 uL of acid-pH-challenged sample was mixed with 0-40 μL, of McIlvaine buffer pH 4.8, 25 μL, of 1 M citrate buffer pH 4.3 and 25 μL, of 4 mM MUGal in McIlvaine buffer pH 4.8. The reactions were mixed briefly and incubated at 37° C. for 30-180 minutes, prior to quenching with 100 μL, of 1 M sodium carbonate. Hydrolysis was analyzed using a SpectraMax® M2 microplate reader monitoring fluorescence (Ex. 355 nm, Em. 448 nm).

[2] = HTP-analysis of yeast culture supernatants, no challenge (MUGal hydrolysis); conditions: activity of the variant/activity of WT GLA (SEQ ID NO: 5), yeast supernatant
Method: as §1
GLA variant activity was determined by measuring the hydrolysis of 4-methylumbelliferyl α-D-galactopyranoside (MUGal). For this assay, 5-50 μL, of yeast culture supernatant produced as described above, was mixed with 0-45 μL, of McIlvaine Buffer (McIlvaine, J. Biol. Chem., 49:183-186 [1921]), pH 4.8 and 50 μL of 2 mM MUGal in 50 mM citrate, 200 mM KCl, pH 4.6 in a 96-well, black, opaque bottom plate. The reactions were mixed briefly and incubated at 37° C. for 30-180 minutes, prior to quenching with 100 μL, of 1 M sodium carbonate. Hydrolysis was analyzed using a SpectraMax® M2 microplate reader monitoring fluorescence (Ex. 355 nm, Em. 448 nm).

[3] = HTP-analysis of supernatants pretreated with base (MUGal hydrolysis); conditions: challenge at pH 7.0; activity of the variant/activity of WT GLA (SEQ ID NO: 5); yeast supernatant
Method: as §1
GLA variants were challenged with basic (neutral) buffer to simulate the pHs that the variants encounter in the blood following their administration to a patient. First, 50 μL of yeast culture supernatant and 50 uL of McIlvaine buffer (pH 7.0-8.2) or 200 mM sodium bicarbonate (pH 9.1-9.7) were added to the wells of a 96-well round bottom plate. The plates were sealed and incubated at 37° C. for 1-18 h. For the assay, 10-50 μL of basic-pH-challenged sample was mixed with 0-40 μL, of McIlvaine buffer pH 4.8, 25 μL, of 1 M citrate buffer pH 4.3 and 25 μL, of 4 mM MUGal in McIlvaine buffer pH 4.8. The reactions were mixed briefly and incubated at 37° C. for 30-180 minutes, prior to quenching with 100 μL, of 1 M sodium carbonate. Hydrolysis was analyzed using a SpectraMax® M2 microplate reader monitoring fluorescence (Ex. 355 nm, Em. 448 nm).

Molecule | Relative Activity of GLA Variants After Challenge at pH 4.3 [1] | Relative Activity of GLA Variants After No Challenge (NC) [2] | Relative Activity of GLA Variants After Challenge at pH 7.0 [3]
B1 | + (+ = 0.5 to 1.5 relative activity over WT GLA (SEQ ID NO: 5)) | + (+ = 0.5 to 1.5 relative activity over WT GLA (SEQ ID NO: 5)) | + (+ = 0.5 to 1.5 relative activity over WT GLA (SEQ ID NO: 5))
B2 | +++ (+++ = >2.5 relative activity over WT GLA (SEQ ID NO: 5)) | ++ (++ = >1.5 to 2.5 relative activity over WT GLA (SEQ ID NO: 5)) | +++ (+++ = >2.5 relative activity over WT GLA (SEQ ID NO: 5))
B3 | +++ (+++ = >2.5 relative activity over WT GLA (SEQ ID NO: 5)) | + (+ = 0.5 to 1.5 relative activity over WT GLA (SEQ ID NO: 5)) | ++ (++ = >1.5 to 2.5 relative activity over WT GLA (SEQ ID NO: 5))
B4 | +++ (+++ = >2.5 relative activity over WT GLA (SEQ ID NO: 5)) | ++ (++ = >1.5 to 2.5 relative activity over WT GLA (SEQ ID NO: 5)) | ++ (++ = >1.5 to 2.5 relative activity over WT GLA (SEQ ID NO: 5))
B5 | +++ (+++ = >2.5 relative activity over WT GLA (SEQ ID NO: 5)) | ++ (++ = >1.5 to 2.5 relative activity over WT GLA (SEQ ID NO: 5)) | ++ (++ = >1.5 to 2.5 relative activity over WT GLA (SEQ ID NO: 5))
B6 | +++ (+++ = >2.5 relative activity over WT GLA (SEQ ID NO: 5)) | + (+ = 0.5 to 1.5 relative activity over WT GLA (SEQ ID NO: 5)) | + (+ = 0.5 to 1.5 relative activity over WT GLA (SEQ ID NO: 5))
B7 | ++ (++ = >1.5 to 2.5 relative activity over WT GLA (SEQ ID NO: 5)) | + (+ = 0.5 to 1.5 relative activity over WT GLA (SEQ ID NO: 5)) | + (+ = 0.5 to 1.5 relative activity over WT GLA (SEQ ID NO: 5))
B8 | +++ (+++ = >2.5 relative activity over WT GLA (SEQ ID NO: 5)) | + (+ = 0.5 to 1.5 relative activity over WT GLA (SEQ ID NO: 5)) | + (+ = 0.5 to 1.5 relative activity over WT GLA (SEQ ID NO: 5))
B9 | +++ (+++ = >2.5 relative activity over WT GLA (SEQ ID NO: 5)) | + (+ = 0.5 to 1.5 relative activity over WT GLA (SEQ ID NO: 5)) | + (+ = 0.5 to 1.5 relative activity over WT GLA (SEQ ID NO: 5))
B10 | ++ (++ = >1.5 to 2.5 relative activity over WT GLA (SEQ ID NO: 5)) | ++ (++ = >1.5 to 2.5 relative activity over WT GLA (SEQ ID NO: 5)) | ++ (++ = >1.5 to 2.5 relative activity over WT GLA (SEQ ID NO: 5))
B11 | ++ (++ = >1.5 to 2.5 relative activity over WT GLA (SEQ ID NO: 5)) | + (+ = 0.5 to 1.5 relative activity over WT GLA (SEQ ID NO: 5)) | + (+ = 0.5 to 1.5 relative activity over WT GLA (SEQ ID NO: 5))
B12 | +++ (+++ = >2.5 relative activity over WT GLA (SEQ ID NO: 5)) | + (+ = 0.5 to 1.5 relative activity over WT GLA (SEQ ID NO: 5)) | ++ (++ = >1.5 to 2.5 relative activity over WT GLA (SEQ ID NO: 5))
